Measured values reported in IntAct's records for PubMed 19322201.

Target: elav1_human ELAVL1 (UniProt Q15717)

Q: Which “effect of a mutation on the interaction” value does the source give for “Polyubiquitin-C (Homo sapiens) (from UniProt P0CG48) K48R” here?
A: disrupting interaction
